Measured values from article PMC3107778.

Columns and labels:
[1] = target: YqiC of Salmonella enterica serovar Typhimurium (Salmonella enterica serovar Typhimurium ATCC 14028); assay: cross-linking; purified YqiC with ethylene glycol bis(succinimidylsuccinate) (EGS) at 0.5, 1.0 and 5.0 mM, 30 min at room temperature in phosphate-buffered saline, stopped with 50 mM Tris-HCl pH 8.0; products on 15% SDS-PAGE, Coomassie staining
[2] = target: YqiC of Salmonella enterica serovar Typhimurium (Salmonella enterica serovar Typhimurium ATCC 14028); assay: SEC-MALS; static light scattering (90°) and refractive index coupled to a Superdex 75 column; eluted with PBS (methods) or 50 mM Tris-HCl, 150 mM NaCl pH 8; calibrated with BSA; single homogeneous peak

## YqiC of Salmonella enterica serovar Typhimurium (from UniProt A0A2X4T3G4 1-98) (natural protein)
[1]
  stoichiometry N: 3
[2]
  stoichiometry N: 3
